Common to all, as to assay: BLI
Data set [1] deals with hen egg-white lysozyme (HEL) (Gallus gallus) (UniProt P00698). To be noted: Buffer R: 20 mM HEPES pH 7.5, 20 mM NaOAc, 140 mM KOAc, 3 mM Mg(OAc)2, 0.1% Tween20, BLI temperature not stated, low values mean tight binding.
For data set [2], the system named is Gmab anti-G4 antibody fragment (human (Garvan-2 scFv library)). To be noted: Buffer R: 20 mM HEPES pH 7.4-7.5, 20 mM NaOAc, 140 mM KOAc, 3 mM Mg(OAc)2, 0.1% Tween20, SPR at 20 C, BLI temperature not ….
For data set [3], the system named is BG4 anti-G4 antibody. To be noted: Buffer R: 20 mM HEPES pH 7.4-7.5, 20 mM NaOAc, 140 mM KOAc, 3 mM Mg(OAc)2, 0.1% Tween20, SPR at 20 C, BLI temperature not ….

hen egg-white lysozyme (HEL) (Gallus gallus), sequence (P00698 19-147): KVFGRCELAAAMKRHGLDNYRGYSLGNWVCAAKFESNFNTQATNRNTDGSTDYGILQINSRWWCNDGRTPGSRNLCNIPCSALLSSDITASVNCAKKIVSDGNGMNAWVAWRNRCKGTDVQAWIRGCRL

For “GTTCGTTTAAATGTGTGTCGTCGTTCCCTATCC [core13 G27C]”, the equilibrium dissociation constant (Kd) in data set [1] (all-HNA) came to 116 nM.
In the case of “GTGCTGTTCGTTTAAATGTGTGTCGTCGTTCGCTATCC [LYS-S8-19-core14 (HNA)]”, the values for the Kd in data set [2] (all-HNA (1',5'-anhydrohexitol)), in data set [3] (all-HNA (1',5'-anhydrohexitol)) and in data set [1] (all-HNA (1',5'-anhydrohexitol)) were 32.3 nM, 5.3 nM and 48.8 nM, respectively.
On to CGGGCGGGCGCGAGGGAGGGG [KIT2 G4], for which the Kd in data set [2] (ka 7.5e4 M-1s-1, kd 2.7e-4 s-1) worked out at 3.6 nM; in data set [3] (ka 7.9e4 M-1s-1, kd 1.5e-4 s-1) it was 1.9 nM.
Sequence “GTTCGTTTAAATATGTGTCGTCGTTCGCTATCC [core13 G13A]” had a dissociation constant (Kd) in data set [1] (all-HNA) of 97.9 nM.
In the case of “GTTCGTTTAAATGTGTGTCGTCGTTCGCTATCC [LYS-S8-19-core13 (HNA)]”, the Kd in data set [2] (ka 8.47e4, kd 1.00e-2, all-HNA) worked out at 118 nM; in data set [1] (all-HNA), 68.8 nM.
In turn, “GTTCGTTTAAATGTGTGTCGTCGTTCACTATCC [core13 G27A]” registered a Kd in data set [1] (all-HNA) of 9.28 nM.
